Laboratory results from publication PMC4703952, “Probing Intersubunit Interfaces in AMPA-subtype Ionotropic Glutamate Receptors” (Scientific Reports, 2016).
Numbering of substitutions follows the chain as printed. Numbers in names are those of the source.

B1: GluA2_(C589A-Thr) K663C (receptor, rat)
chain: VSSNSIQIGGLFPRGADQEYSAFRVGMVQFSTSEFRLTPHIDNLEVANSFAVTNAFCSQFSRGVYAIFGFYDKKSVNTITSFCGTLHVSFITPSFPTDGTHPFVIQMRPDLKGALLSLIEYYQWDKFAYLYDSDRGLSTLQAVLDSAAEKKWQVTAINVGNINNDKKDETYRSLFQDLELKKERRVILDCERDKVNDIVDQVITIGKHVKGYHYIIANLGFTDGDLLKIQFGGANVSGFQIVDYDDSLVSKFIERWSTLEEKEYPGAHTATIKYTSALTYDAVQVMTEAFRNLRKQRIEISRRGNAGDCLANPAVPWGQGVEIERALKQVQVEGLSGNIKFDQNGKRINYTINIMELKTNGPRKIGYWSEVDKMVVTLTELPSGNDTSGLENKTVVVTTILESPYVMMKKNHEMLEGNERYEGYCVDLAAEIAKHCGFKYKLTIVGDGKYGARDADTKIWNGMVGELVYGKADIAIAPLTITLVREEVIDFSKPFMSLGISIMIKKPQKSKPGVFSFLDPLAYEIWMCIVFAYIGVSVVLFLVSRFSPYEWHTEEFEDGRETQSSESTNEFGIFNSLWFSLGAFMQQGADISPRSLSGRIVGGVWWFFTLIIISSYTANLAAFLTVERMVSPIESAEDLSKQTEIAYGTLDSGSTKEFFRRSCIAVFDKMWTYMRSAEPSVFVRTTAEGVARVRKSKGKYAYLLESTMNEYIEQRKPCDTMKVGGNLDSKGYGIATPKGSSLGTPVNLAVLKLSEQGVLDKLKNKWWYDKGECGAKDSGSKEKTSALSLSNVAGVFYILVGGLGLAMLVALIEFCYKSRAEAKRMKVAKNPQNINPSSSQNSQNFATYKEGYNVYGIESVKIGLVPR
notes: signal peptide in the construct; AMPA receptor subunit GluA2, flip form (GluA2i), rat, NP_058957, full length including the native signal peptide; extra residues left from the thrombin cleavage site at the distal C-terminus after digestion; Single cysteine substitution in m1, LBD dimer-dimer interface; source: HEK293 GnTI- cells, baculovirus-transduced (BacMam), purified (streptactin resin, …)
B2: GluA2_(C589A-Thr) A621C (receptor, rat)
chain: B1 chain with A621C, C663K
notes: signal peptide in the construct; AMPA receptor subunit GluA2, flip form (GluA2i), rat, NP_058957, full length including the native signal peptide; extra residues left from the thrombin cleavage site at the distal C-terminus after digestion; source: HEK293 GnTI- cells, baculovirus-transduced (BacMam), purified (streptactin resin, thrombin digestion, SEC Superose 6); not shown: eGFP, C-terminal, …
B3: GluA2_(C589A-Thr) R628C (receptor, rat)
chain: B1 chain with R628C, C663K
notes: signal peptide in the construct; AMPA receptor subunit GluA2, flip form (GluA2i), rat, NP_058957, full length including the native signal peptide; extra residues left from the thrombin cleavage site at the distal C-terminus after digestion; Single cysteine substitution in m1, LBD-TMD linker region (M3-S2 linker); source: HEK293 GnTI- cells, baculovirus-transduced (BacMam), purified (streptactin …)
B4: GluA2_(C589A-Thr) A665C (receptor, rat)
chain: B1 chain with C663K, A665C
notes: as for B1
B5: GluA2_(C589A-Thr) I664C (receptor, rat)
chain: B1 chain with C663K, I664C
notes: as for B1
B6: GluA2_(C589A-Thr) (receptor, rat)
chain: B1 chain with C663K
notes: signal peptide in the construct; AMPA receptor subunit GluA2 (GluRB, GluR2), flip form (GluA2i), rat, NP_058957, full length including the native signal peptide; extra residues left from the thrombin cleavage site (GLVPRG) at the distal C-terminus after digestion; Tetrameric membrane protein in C12M detergent with lipid; Purified under reducing conditions; also called WT; parent; source: HEK293 …

Key:
Test in all cases: SEC; FSEC of ~10% of the protein dialysed into non-reducing buffers with the various ligands; 150 mM NaCl, 20 mM Tris-HCl pH 8.0, 1 mM C12M, lipid
[1] = biological target: GluA2_(C589A-Thr) I209C (rat)
[2] = biological target: GluA2_(C589A-Thr) V215C (rat)
[3] = biological target: GluA2_(C589A-Thr) I211C (rat)
[4] = biological target: GluA2_(C589A-Thr) G212C (rat)
[5] = biological target: the molecule itself

Molecule | stoichiometry N [5] | also measured
GluA2_(C589A-Thr) I209C (receptor) |  | stoichiometry N [1]: 4
GluA2_(C589A-Thr) V215C (receptor) |  | stoichiometry N [2]: 4
GluA2_(C589A-Thr) I211C (receptor) |  | stoichiometry N [3]: 4
GluA2_(C589A-Thr) G212C (receptor) |  | stoichiometry N [4]: 4
B1 | 4 | 
B2 | 4 | 
B3 | 4 | 
B4 | 4 | 
B5 | 4 | 
B6 | 4 | 
